Measurements taken from publication PMC7567689, “High-level expression of aryl-alcohol oxidase 2 from Pleurotus eryngii in Pichia pastoris for production of fragrances and bioactive precursors” (Applied Microbiology and Biotechnology, 2020).

Key:
PeAAO2 [1] = target: T1, PeAAO2 (Pleurotus eryngii, UniProt D3YBH4); assay: direct UV assay of cuminaldehyde formation at […] nm, Michaelis-Menten fit; format: biochemical; conditions: 100 mM sodium phosphate pH 6.0, 25 °C; O2 as co-substrate; glycosylated enzyme; read-out: PeAAO2 from P. eryngii expressed in P. pastoris^a
T1 construct: no tag mentioned

PeAAO2 [2] = target: T1, PeAAO2; assay: direct UV assay of veratraldehyde formation at […] nm, Michaelis-Menten fit; format: biochemical; conditions: 100 mM sodium phosphate pH 6.0, 25 °C; O2 as co-substrate; glycosylated enzyme; read-out: PeAAO2 from P. eryngii expressed in P. pastoris^a
C/C=C/C=C/CO = test system: T2, C/C=C/C=C/CO; assay: purified protein; format: biochemical, Pleurotus eryngii; conditions: 100 mM sodium phosphate pH 6.0, 25 °C, O2 as co-substrate, glycosylated enzyme
T2 construct: no tag mentioned

OC/C=C/c1ccccc1 = test system: T3, OC/C=C/c1ccccc1; assay: purified protein; format: biochemical, Pleurotus eryngii; conditions: 100 mM sodium phosphate pH 6.0, 25 °C, O2 as co-substrate, glycosylated enzyme, substrate in DMSO
T3 construct: no tag mentioned

OCc1ccc2c(c1)OCO2 = test system: T4, OCc1ccc2c(c1)OCO2; assay: purified protein; format: biochemical, Pleurotus eryngii; conditions: 100 mM sodium phosphate pH 6.0, 25 °C, O2 as co-substrate, glycosylated enzyme
T4 construct: no tag mentioned

OCc1ccccc1 = test system: T5, OCc1ccccc1; assay: purified protein; format: biochemical, Pleurotus eryngii; conditions: 100 mM sodium phosphate pH 6.0, 25 °C, O2 as co-substrate, glycosylated enzyme
T5 construct: no tag mentioned

T1 sequence (D3YBH4 28-593 limits assumed): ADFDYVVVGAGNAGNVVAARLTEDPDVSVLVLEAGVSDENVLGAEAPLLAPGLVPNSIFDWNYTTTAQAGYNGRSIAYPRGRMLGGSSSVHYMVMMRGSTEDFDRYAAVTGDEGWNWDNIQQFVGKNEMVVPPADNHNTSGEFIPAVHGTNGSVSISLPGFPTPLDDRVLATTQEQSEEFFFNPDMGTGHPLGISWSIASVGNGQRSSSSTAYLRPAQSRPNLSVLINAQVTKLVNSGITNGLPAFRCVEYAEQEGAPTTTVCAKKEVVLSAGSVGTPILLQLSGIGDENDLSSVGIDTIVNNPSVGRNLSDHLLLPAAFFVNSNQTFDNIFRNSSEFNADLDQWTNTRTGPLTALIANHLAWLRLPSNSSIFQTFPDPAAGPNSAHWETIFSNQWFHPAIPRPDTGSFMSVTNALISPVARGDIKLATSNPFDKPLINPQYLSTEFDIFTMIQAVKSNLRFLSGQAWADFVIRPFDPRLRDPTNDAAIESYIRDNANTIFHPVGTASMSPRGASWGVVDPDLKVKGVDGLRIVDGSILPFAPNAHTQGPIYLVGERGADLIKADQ

CC(C)c1ccc(CO)cc1 [Cumic alcohol]
Km (PeAAO2 [1]): 1910 ± 42.4 µM

COc1ccc(CO)cc1OC [Veratryl alcohol]
Km (PeAAO2 [2]): 447 ± 7.5 µM

PeAAO2 (Pleurotus eryngii)
Km (C/C=C/C=C/CO): 143.6 ± 11.5 µM | kcat (C/C=C/C=C/CO): 68.8 ± 0.05 s⁻¹ | kcat/Km (C/C=C/C=C/CO): 479000 M⁻¹ s⁻¹ | Km (OC/C=C/c1ccccc1): 2740 ± 103 µM | kcat (OC/C=C/c1ccccc1): 125.5 ± 0.1 s⁻¹ | kcat/Km (OC/C=C/c1ccccc1): 45800 M⁻¹ s⁻¹ | Km (OCc1ccc2c(c1)OCO2): 59.1 ± 3.0 µM | kcat (OCc1ccc2c(c1)OCO2): 35.5 ± 0.02 s⁻¹ | kcat/Km (OCc1ccc2c(c1)OCO2): 600000 M⁻¹ s⁻¹ | Km (OCc1ccccc1): 599.6 ± 18.7 µM | kcat (OCc1ccccc1): 12.8 ± 0.01 s⁻¹ | kcat/Km (OCc1ccccc1): 21400 M⁻¹ s⁻¹
